{
  "source": "patent US20240116985A1",
  "about": "(published 2024)",
  "binders": {"B1": {"name": "I-225 (peptide)", "peptide": "Ac-FDA[R8]DDAAFV[PyrS][Phe(F5)]WQ-NH2", "modifications": "staple 4-11", "notes": "Stapled peptide composition; also called Ac-Phe-Asp-Ala-R8-Asp-Asp-Ala-Ala-Phe-Val-PyrS-Pff-Trp-Gln-NH2"}, "B2": {"name": "I-226 (peptide)", "peptide": "Ac-FDA[R8]DDAAFV[PyrS″][Phe(F5)]WQ-NH2", "modifications": "staple 4-11", "notes": "as for B1"}, "B3": {"name": "I-227 (peptide)", "peptide": "Ac-FDA[R8]DDAAFV[PyrS″][Phe(F5)]WQ-NH2", "modifications": "staple 4-11", "notes": "as for B1"}, "B4": {"name": "I-228 (peptide)", "peptide": "Ac-FDA[R8]DDAAFV[PyrS][Phe(F5)]WQ-NH2", "modifications": "staple 4-11", "notes": "as for B1"}, "B5": {"name": "I-222 (peptide)", "peptide": "Ac-FDA[R8]DDAAFT[PyrS″]FWQ-NH2", "modifications": "staple 4-11", "notes": "Stapled peptide composition; also called Ac-Phe-Asp-Ala-R8-Asp-Asp-Ala-Ala-Phe-Thr-PyrS-Phe-Trp-Gln-NH2"}, "B6": {"name": "I-223 (peptide)", "peptide": "Ac-FDA[R8]DDAAFT[PyrS″]FWQ-NH2", "modifications": "staple 4-11", "notes": "as for B5"}, "B7": {"name": "I-224 (peptide)", "peptide": "Ac-FDA[R8]DDAAFT[PyrS]FWQ-NH2", "modifications": "staple 4-11", "notes": "as for B5"}, "B8": {"name": "I-229 (peptide)", "peptide": "Ac-[αAllylPro]DA[B5(4)][2Pal]EAAFV[S8]FWQ-NH2", "modifications": "staple 1-4, 4-11; also: separate staple isomer composition", "notes": "Stapled peptide composition; also called Ac-PL3-Asp-Ala-B5-2pyrA-Glu-Ala-Ala-Phe-Val-S8-Phe-Trp-Gln-NH2"}, "B9": {"name": "I-230 (peptide)", "peptide": "Ac-[αAllylPro]DA[B5(4)][2Pal]EAAFV[S8]FWQ-NH2", "modifications": "staple 1-4, 4-11; also: separate staple isomer composition", "notes": "as for B8"}, "B10": {"name": "I-231 (peptide)", "peptide": "Ac-[αAllylPro]DA[B5(4)]D[Bta]AAFV[S8]FWQ-NH2", "modifications": "staple 1-4, 4-11", "notes": "Stapled peptide composition; also called Ac-PL3-Asp-Ala-B5-Asp-BztA-Ala-Ala-Phe-Val-S8-Phe-Trp-Gln-NH2"}, "B11": {"name": "I-232 (peptide)", "peptide": "Ac-[αAllylPro]DA[B5(4)]D[2Nal]AAFV[S8]FWQ-NH2", "modifications": "staple 1-4, 4-11", "notes": "Stapled peptide composition; also called Ac-PL3-Asp-Ala-B5-Asp-2NapA-Ala-Ala-Phe-Val-S8-Phe-Trp-Gln-NH2"}, "B12": {"name": "I-234 (peptide)", "peptide": "Ac-[αAllylPro]DA[B5(3)]D[1Nal]AAFV[S8]FWQ-NH2", "modifications": "staple 1-4, 4-11", "notes": "Stapled peptide composition; also called Ac-PL3-Asp-Ala-B5-Asp-1NapA-Ala-Ala-Phe-Val-S8-Phe-Trp-Gln-NH2"}, "B13": {"name": "I-235 (peptide)", "peptide": "Ac-[αAllylPro]DA[B5(3)]D[Bip]AAFV[S8]FWQ-NH2", "modifications": "staple 1-4, 4-11", "notes": "Stapled peptide composition; also called Ac-PL3-Asp-Ala-B5-Asp-Bip-Ala-Ala-Phe-Val-S8-Phe-Trp-Gln-NH2"}, "B14": {"name": "I-237 (peptide)", "peptide": "Ac-[αAllylPro]DA[B5(3)]DDAA[Phe(3-CF3)]V[S8]FWQ-NH2", "modifications": "staple 1-4, 4-11", "notes": "Stapled peptide composition; also called Ac-PL3-Asp-Ala-B5-Asp-Asp-Ala-Ala-3F3MeF-Val-S8-Phe-Trp-Gln-NH2"}, "B15": {"name": "I-238 (peptide)", "peptide": "Ac-[αAllylPro]DA[B5(3)]DDAA[Phe(3-CF3)]V[S8]FWQ-NH2", "modifications": "staple 1-4, 4-11", "notes": "as for B14"}, "B16": {"name": "I-239 (peptide)", "peptide": "Ac-[αAllylPro]DA[B5(5)]DDAA[Phe(3-CF3)]V[S8]FWQ-NH2", "modifications": "staple 1-4, 4-11; not fully specified; printed as Ac-PL3-Asp-Ala-B5-Asp-Asp-Ala-Ala-3F3MeF-Val-S8-Phe-Trp-Gln-NH2", "notes": "as for B14"}, "B17": {"name": "I-240 (peptide)", "peptide": "Ac-[αAllylPro]DA[B5(5)]DDAA[Phe(4-CF3)]V[S8]FWQ-NH2", "modifications": "staple 1-4, 4-11; not fully specified; printed as Ac-PL3-Asp-Ala-B5-Asp-Asp-Ala-Ala-4F3MeF-Val-S8-Phe-Trp-Gln-NH2", "notes": "Stapled peptide composition; also called Ac-PL3-Asp-Ala-B5-Asp-Asp-Ala-Ala-4F3MeF-Val-S8-Phe-Trp-Gln-NH2"}, "B18": {"name": "I-241 (peptide)", "peptide": "Ac-[αAllylPro]DA[B5(5)]DDAA[Phe(4-CF3)]V[S8]FWQ-NH2", "modifications": "staple 1-4, 4-11; not fully specified; printed as Ac-PL3-Asp-Ala-B5-Asp-Asp-Ala-Ala-4F3MeF-Val-S8-Phe-Trp-Gln-NH2", "notes": "as for B17"}, "B19": {"name": "I-242 (peptide)", "peptide": "Ac-[αAllylPro]DA[B5(5)]DDAA[Phe(4-CF3)]V[S8]FWQ-NH2", "modifications": "staple 1-4, 4-11; not fully specified; printed as Ac-PL3-Asp-Ala-B5-Asp-Asp-Ala-Ala-4F3MeF-Val-S8-Phe-Trp-Gln-NH2", "notes": "as for B17"}},
  "note": "Starred links: 1 amine or outer side, 2 acyl side, 3 side chain; linkers in the order of their positions; H or OH if unused. Positions of bridges follow the written chain, without caps; N, C: chain ends. Non-standard residues stand in square brackets, D forms with d. Primed or numbered codes have the meaning given here. B5(4) = 2,2-bis(4-pentenyl)glycine = 2-amino-2-(pent-4-en-1-yl)hept-6-enoic acid (stitching residue), C=CCCCC(CCCC=C)(N[*:1])C(=O)[*:2]; B5(5) = 2,2-bis(4-pentenyl)glycine, 2-amino-2-(pent-4-en-1-yl)hept-6-enoic acid (stitching residue), C=CCCCC(CCCC=C)(N[*:1])C(=O)[*:2]; PyrS″ = (S)-1-((allyloxy)carbonyl)-3-aminopyrrolidine-3-carboxylic acid (stapling residue), C=CCOC(=O)N1CC[C@@](N[*:1])(C(=O)[*:2])C1; PyrS = (S)-1-((allyloxy)carbonyl)-3-aminopyrrolidine-3-carboxylic acid, C=CCOC(=O)N1CC[C@@](N[*:1])(C(=O)[*:2])C1; B5(3) = 2,2-bis(4-pentenyl)glycine (stitching residue), C=CCCCC(CCCC=C)(N[*:1])C(=O)[*:2]; Phe(3-CF3) = N[C@@H](Cc1cccc(C(F)(F)F)c1)C(=O)O; Phe(4-CF3) = N[C@@H](Cc1ccc(C(F)(F)F)cc1)C(=O)O; Phe(F5) = N[C@@H](Cc1c(F)c(F)c(F)c(F)c1F)C(=O)O; Bip = N[C@@H](Cc1ccc(-c2ccccc2)cc1)C(=O)O; 1Nal = N[C@@H](Cc1cccc2ccccc12)C(=O)O; 2Nal = N[C@@H](Cc1ccc2ccccc2c1)C(=O)O; Bta = N[C@@H](Cc1csc2ccccc12)C(=O)O; αAllylPro = C=CC[C@@]1(C(=O)O)CCCN1; 2Pal = N[C@@H](Cc1ccccn1)C(=O)O; R8 = C=CCCCCCC[C@@](C)(N)C(=O)O; S8 = C=CCCCCCC[C@](C)(N)C(=O)O",
  "data": [
    {"target": "T1, full-length beta-Catenin (Uniprot ID P35222) (Homo sapiens (Human), UniProt P35222 2-781)", "T1 construct": "The AlphaScreen assay used a Histidine (Nickel Chelate) detection kit, so a His tag is likely, but no tag is described; also called B-Catenin; bCat", "T1 sequence": "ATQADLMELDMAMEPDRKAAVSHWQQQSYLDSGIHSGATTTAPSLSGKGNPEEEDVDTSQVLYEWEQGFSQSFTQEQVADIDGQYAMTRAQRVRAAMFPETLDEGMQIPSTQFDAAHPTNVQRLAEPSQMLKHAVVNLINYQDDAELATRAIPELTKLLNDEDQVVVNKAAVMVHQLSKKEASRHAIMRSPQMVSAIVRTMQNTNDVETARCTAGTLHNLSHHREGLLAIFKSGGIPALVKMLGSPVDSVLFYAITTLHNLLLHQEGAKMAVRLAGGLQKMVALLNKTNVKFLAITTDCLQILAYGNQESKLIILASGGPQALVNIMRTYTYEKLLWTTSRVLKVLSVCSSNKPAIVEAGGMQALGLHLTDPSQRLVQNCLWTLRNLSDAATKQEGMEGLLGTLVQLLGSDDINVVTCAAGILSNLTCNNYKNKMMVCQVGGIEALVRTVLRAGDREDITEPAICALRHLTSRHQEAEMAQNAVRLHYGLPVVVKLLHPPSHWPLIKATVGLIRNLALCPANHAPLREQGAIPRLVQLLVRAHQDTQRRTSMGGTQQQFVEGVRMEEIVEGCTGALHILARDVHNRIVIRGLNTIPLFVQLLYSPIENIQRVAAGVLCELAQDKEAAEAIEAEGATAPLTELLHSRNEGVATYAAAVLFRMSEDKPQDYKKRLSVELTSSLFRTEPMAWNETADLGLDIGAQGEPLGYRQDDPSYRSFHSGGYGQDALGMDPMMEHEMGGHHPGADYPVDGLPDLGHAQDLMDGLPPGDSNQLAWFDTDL", "assay": "AlphaScreen competition: full-length beta-catenin + biotin-TCF4(10-53) probe, peptide titrated", "procedure": "Equal volume of the titrated peptide was added to the plate and incubated for 15 minutes at 20° C. Then 4 uL of donor and 4 uL acceptor beads at 10 ug/mL were added to the plate, for a 16 uL reaction pool and protected from light for 60 minutes at 20° C. prior to read. Reads were performed on a CLARIOstar plate reader (BMG Labtech) in duplicate, and data were fitted to a 1:1 binding model with hill slope using an in-house script. All provided concentrations are final concentrations.", "units": {"EC50": "µM"}, "values": [
      {"binder": "B1", "EC50": 7.63},
      {"binder": "B2", "EC50": 7.63},
      {"binder": "B3", "EC50": 5.91},
      {"binder": "B4", "EC50": 5.91},
      {"binder": "B5", "EC50": 6.58},
      {"binder": "B6", "EC50": 4.12},
      {"binder": "B7", "EC50": 4.12},
      {"binder": "B8", "EC50": 5.81},
      {"binder": "B9", "EC50": 4.61},
      {"binder": "B10", "EC50": 6.53},
      {"binder": "B11", "EC50": 7.64},
      {"binder": "B12", "EC50": 7.53},
      {"binder": "B13", "EC50": 7.34},
      {"binder": "B14", "EC50": 0.384},
      {"binder": "B15", "EC50": 0.267},
      {"binder": "B16", "EC50": 0.267},
      {"binder": "B17", "EC50": 3.47},
      {"binder": "B18", "EC50": 3.47},
      {"binder": "B19", "EC50": 4.91}
    ]}
  ]
}
